Columns and labels:
[1] = biological target: SARS-CoV-2 B.1.1.7 (S protein) (SARS-CoV-2 variant B.1.1.7) (UniProt P0DTC2); assay: microfluidic affinity capture, RT-qPCR; details: 5' amino C12 linker and TEG spacer 9; 3' inverted dT; SPR (BIAcore T200, […], pH not stated; […]
[2] = biological target: SARS-CoV-2 B.1.1.7 (S protein) (SARS-CoV-2 variant B.1.1.7) (UniProt P0DTC2); assay: SPR; details: SPR (BIAcore T200, […], pH not stated
[3] = biological target: SARS-CoV-2 B.1.351 (S protein) (SARS-CoV-2 variant B.1.351) (UniProt P0DTC2); assay: SPR; details: SPR (BIAcore T200, […], pH not stated

Row | Sequence | binding signal [1] [% recovery] | Kd [2] [µM] | Kd [3] [µM]
1 | CAGCACCGACCTTGTGCTTTGGGAGTGCTGGTCCAAGGGCGTTAATGGACA [51-nt SARS-CoV-2 aptamer, chip form] | 35 |  | 
2 | CAGCACCGACCTTGTGCTTTGGGAGTGCTGGTCCAAGGGCGTTAATGGACA [51-nt SARS-CoV-2 aptamer (Song et al.), SPR form] |  | 1 | 1

— paper PMC9519043
